Changes are numbered by the printed parent chain.
T1: TNFR1 on transiently transfected cells (UniProt P19438 30-455, limits assumed)
T1 construct: whole, on cells
T1 sequence (looked up): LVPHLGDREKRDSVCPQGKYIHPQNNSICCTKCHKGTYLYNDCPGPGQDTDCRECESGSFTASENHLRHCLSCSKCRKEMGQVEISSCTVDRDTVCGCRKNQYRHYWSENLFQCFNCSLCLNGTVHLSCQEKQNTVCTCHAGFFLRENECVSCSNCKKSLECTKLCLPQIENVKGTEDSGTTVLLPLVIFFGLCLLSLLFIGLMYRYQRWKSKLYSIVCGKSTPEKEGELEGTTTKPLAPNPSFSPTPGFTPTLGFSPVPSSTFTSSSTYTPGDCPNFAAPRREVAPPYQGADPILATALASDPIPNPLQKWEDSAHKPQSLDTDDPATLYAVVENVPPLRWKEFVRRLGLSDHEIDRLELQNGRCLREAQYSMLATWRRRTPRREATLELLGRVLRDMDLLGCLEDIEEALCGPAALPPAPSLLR

T2: human TNFR2 expressed on the cell membrane (membrane-type TNFR2) (human, UniProt P20333 23-461)
T2 construct: also called TNFRSF1B; cell membrane type TNFR2
T2 sequence: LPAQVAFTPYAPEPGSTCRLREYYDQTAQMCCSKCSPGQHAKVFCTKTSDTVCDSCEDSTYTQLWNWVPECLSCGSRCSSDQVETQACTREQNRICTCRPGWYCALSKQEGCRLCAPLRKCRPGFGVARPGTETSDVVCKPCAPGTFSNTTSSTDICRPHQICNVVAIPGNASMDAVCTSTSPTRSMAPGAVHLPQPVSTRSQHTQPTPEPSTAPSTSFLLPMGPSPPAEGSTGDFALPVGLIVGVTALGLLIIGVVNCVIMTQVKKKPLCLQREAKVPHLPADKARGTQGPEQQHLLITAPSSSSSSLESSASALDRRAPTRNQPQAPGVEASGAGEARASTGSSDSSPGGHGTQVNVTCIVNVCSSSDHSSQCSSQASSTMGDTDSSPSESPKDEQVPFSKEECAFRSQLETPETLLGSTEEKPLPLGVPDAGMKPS

B1: TR109 (anti-TNFR2 antagonist antibody, mouse monoclonal) (antibody, V domains shown)
VH: QVQLKESGPGLVAPSQSLSITCTVSGFSLTVYGVNWVRQPPGKGLEWLGMIWGDGSTAYNSALKSRLTITKDNSKTQVFLKMNSLQTDDTARYYCARDGRRYALDYWGQGTSVTVSS
VL: DIVLTQSPTSLAVSLGQRATISCRASESVDSYGDSFLHWYQQKPGQPPILLIYRASNLDSGIPARFSGSGSRTDFTLTINPVEADDVATYYCQQSNEDPYTFGGGTKLEINR
notes: also called Ep9: TR109; Ep7
B2: humanized TR109 antibody (TR109HUVH1 + TR109HUVL1) (antibody, V domains shown)
VH: QVQLQESGPGLVKPSGTLSLTCAVSGGSISVYGVNWVRQPPGKGLEWIGMIWGDGSTAYNSALKSRVTISVDKSKNQFSLKLSSVTAADTAVYYCARDGRRYALDYWGQGTLVTVSS
VL: DIVMTQSPDSLAVSLGERATINCRASESVDSYGDSFLHWYQQKPGQPPKLLIYRASNLDSGVPDRFSGSGSGTDFTLTISSLQAEDVAVYYCQQSNEDPYTFGQGTKLEIK
notes: also called one of the four humanized TR109 antibodies
B3: humanized TR109 antibody (TR109HUVH1 + TR109HUVL2) (antibody, V domains shown)
VH: B2 VH
VL: EIVLTQSPATLSLSPGERATLSCRASESVDSYGDSFLHWYQQKPGQAPRLLIYRASNLDSGIPARFSGSGSGTDFTLTISSLEPEDFAVYYCQQSNEDPYTFGQGTKLEIK
notes: as for B2
B4: humanized TR109 antibody (TR109HUVH2 + TR109HUVL1) (antibody, V domains shown)
VH: B2 VH with G16E, A23T, G27Y, V37I, K73T
VL: B2 VL
notes: as for B2
B5: humanized TR109 antibody (TR109HUVH2 + TR109HUVL2) (antibody, V domains shown)
VH: B2 VH with G16E, A23T, G27Y, V37I, K73T
VL: B3 VL
notes: as for B2
B6: humanized TR92 antibody (TR92HUVH1 + TR92HUVL1) (antibody, V domains shown)
VH: QVQLVQSGAEVKKPGASVKVSCKASGYTFTESIIHWVRQAPGQGLEWMGWFYPGSDNINYNEKFKDRVTMTRDTSISTAYMELSRLRSDDTAVYYCARHEGPYVYFDYWGQGTTVTVSS
VL: DIVMTQSPDSLAVSLGERATINCKASQDVSTAVAWYQQKPGQPPKLLIYWTSTRHTGVPDRFSGSGSGTDFTLTISSLQAEDVAVYYCQHHYSTPYTFGQGTKLEIK
notes: also called one of the four humanized TR92 antibodies
B7: humanized TR92 antibody (TR92HUVH1 + TR92HUVL2) (antibody, V domains shown)
VH: B6 VH
VL: DIQMTQSPSSLSASVGDRVTITCKASQDVSTAVAWYQQKPGKAPKLLIYWTSTRHTGVPSRFSGSGSGTDFTLTISSLQPEDFATYYCQHHYSTPYTFGQGTKLEIK
notes: as for B6
B8: humanized TR92 antibody (TR92HUVH2 + TR92HUVL2) (antibody, V domains shown)
VH: B6 VH with P41T, D73N, R85S, D89E
VL: B7 VL
notes: as for B6
B9: humanized TR92 antibody (TR92HUVH2 + TR92HUVL1) (antibody, V domains shown)
VH: B6 VH with P41T, D73N, R85S, D89E
VL: B6 VL
notes: as for B6

How the values were obtained:
[1] = molecular target: T1, TNFR1 on transiently transfected cells; assay: flow cytometry on transiently transfected cells
[2] = molecular target: T2, human TNFR2 expressed on the cell …; assay: flow cytometry on cells with transient expression of TNFR2 against untreated cells

Binder	binding result [1]	binding result [2]
B1	no binding	–
B2	–	binds
B3	–	binds
B4	–	binds
B5	–	binds
B6	–	binds
B7	–	binds
B8	–	binds
B9	–	binds

Reference: WO2018092907A1 (dated 2018)
